Assay results as given in the DeepSol protein solubility set.

assay: soluble on expression in E. coli; label from the status in PepcDB or PDB records

Soluble on expression in E. coli, not soluble:
MGSDKIHHHHHHMNYIKRSLERKFLHMSKFFKAVLVTGARQVGKTTMLKHLAEGQNRTYVTLDNLMARNLAKTDPVLFFQTYKPPVLIDEVQYAPELFSQIKILCDSSEEPGLIWLTGSQQFEMMKNVRETLAGRIGIMTLYSLSKNEKDGIEFENSLDFSPECLFARQRIAEKNDVLKVFEHIWRGGMPQVLHADAEQRQEYYNAYVNTYLMRDVAELGGITDSLRFAKFLTACAALTSEQVNYKNLSEAADISQPTAKEWLRLLEGLGIVYLLQPYANNAFKRLTKAPKLYFCDTGLCAHLSMWLTPETLMNGAASGHYFENHVVAEMLKSYAYSASKAVITYFRDSNAKEIDIIVEANNQLHPLEIKKSASPNSREINKYTILDKSSIKRGHGGILCLCEEVVPIDEQNCFIPCNLI, MGSDKIHHHHHHMNYKELNKIFKETLSLRWDPVAVRMMRPGEEKPAQGIEPTVPLRHCQSIITARRGNCLYMPPRSHACPDGTGVLGLVEMSPKLRSGDLYLLFKKMPNIETARQMISSRPEFKAGSYEATLLAPLEKAAFEPDVVVFTLWPEQAMWLCCAQTYATGERQDFKTSGFNSACADLIVQTMTSGEMNISFGCYGARASSEIDDFELYLAIPTALLEPIAQALLKLSQKSIPEERKKIYLHPVMDKVGSRRAQSQGEGARVELFVDTERCMGDGLCVDFCPSGVLAMVEAGDRKVAQALHPDACSACYTCVGQCPQQAIQLSYN, MGSDKIHHHHHHMNYNKLSSATIQGIEAMKIDVEVDFDNRSVFNDIDVVGLGDTAVKESRKRVKSAILNSGFSLPHGKYVVNLAPGDVRKEGSMLDLPIALCILASTGIVQVSENILAIGELSLNGEVKRVNGVLPVLLSLSEMFSGTVLIPKENEEEAKCVKELDIYAVESLRECVEFLRGDRTLKRIEYSGIENTNLEYEIDFSDVRDHEMVKRAVEIAVAGFHNILMVGNPGSGKTMIAKRIPTIFPPMSEEEILETSKVYSASGYPGIVKLRPFRAPHHTASTVSIIGGGTNPRPGEISLAHNGVLFLDELPEFKRDVLEALRQPLEEGIVTVARAKFTVTYPARFMLVGAMNPCPCGNLGDPKQPCVCSPRDIMRYRKKISGPLLDRMDLVINVPKLSFEEMMKKPEGEKSSSIRERVMKAREIQKRRFRDTHISCNSQMSHRMLRRFVQLDEKSEDLLKRYVERYGLSGRKIDKVLKISRTIADLEGSNGVEMSHLAEALQYRFRES, MGSDKIHHHHHHMNYPSLVWHLKRTELFADFELAELEQVAATTPYRSYQPGEVIYRMDDPADALYFVRSGLVKISKLFPNGKEAILGVVGQHDTFGELLLQPEERRPTQAEALERTTLIVLPRQELQKLLSTKPDLAMKLIRLMAARLFEAQAWTATVSAYSAPERVASLLYRLAREFGRPHSQGVELNLKLNQEDIARMVGATRETVSHSLSRLKKGGAIVRARSPIIVQMDALKAFIDQEH, MGSDKIHHHHHHMPATAYSAIHGRDIRTLKQCPPVVDAMTYGFMVLLPCDVVVDKGTFSWDWQIPEPVTQNHPRAPLSFHTPGQLAGSPFATTGQAALKFNSFWTIEVEDGWSLFATHPVNREDLPFRLVTGLVDSDRFSDGGINFPAVWTEAGFSGVLAKGTPVAQCFAVPRAAPQLEYEVFDEERQASYARTVADVLSTPGVYRKRFRARRGRSTGE, MGSDKIHHHHHHMPELATREFWKDLQPIPDCFKPDAKPEVYLRNAPTEDERLYVPFTETVKSRPLWISPSENRWCDILMATSAGLVNRHYHPHEVFAYTISGKWGYLEHDWTATAGDFVYETPGEGHTLVAYEHEQPMRAFFIVKGPLVWLDEKGNADGIFDVHDYIAMCREHYDKIGVGAAYIDSLFR, MGSDKIHHHHHHMPEQNSFPPEVDHTRPNPARIYDYGLGGHHNFAADRDQFEKLLEVDPDARLVVSANRAFLRRAVRYCLRQGITQFLDLGSGIPTVGNVHEAAHQLNPRARVVYVDNEPIAVAHTRRLLRENENAEIVQADLRDPDAILGAPETQRLLDLSKPVGLMMVAVLHWVPSADVAGLLSRYREVLAPGSYLAISHLTSEHLPEQMGEVEDVFAETTEPVVYRPRSEAVKLFEGFELVPPGVVYTSQWQSEPYEMVEPPERTKIWAAVGRKL, MGSDKIHHHHHHMPFVSYAQNLEDVRLWRALKLFPRGFYIDVGANHPRIDSVTLAFYERGWRGINIEPLPHLHRELERERPEDLNLNLAIGEREGRATLYEMAASGLSTLDPELARQRQAEGCTATPREVKVSTLDAICAAHVEGPIHFLKIDVEGLEGAVLRGLDLNRWRPWLILAETPFDHDPEWKAPLLAAGYRFVHFDGLNGYYLAEEQARLEGAFALPPNLLDDFQLCHGHAMSHPVAPLEQALEQALQRAEDAERALRDWRALPWYRRLFG, MGSDKIHHHHHHMPGRAGGCTRNTGAPVNRQDRAHAFLQRALEAQAALPVDHGLMRDLFAGTGDDSRLSLSEVGELVSRDPSLAVRILSLANSAYYGLQAEVTTVGRAVTVLGMREVRNLVLALGFSSVARMHPLPDRFCTAGYWLHQLRVAAFCRIIAAGTEDLDPEMLYTAGLLHDIGKLFIAALAPDDWLGIRRLARQESLPDCKAEERWWGLDHALAGARVLAYWQLPAALTEPISWHHGPHFADAAHARGAGAVQLADALLLAFERGTPPPAAALQLLKEYTADAGRLQMALEAQFAGERIGQLAALLG, MGSDKIHHHHHHMPHSLHPLFQAIATAPTEQTLRLTVMDNISEYFGVQRWGIYLLDTNNNLASVEAKGVSDTFIEQYQRFGKAVDPVLKYVLENHAPAHEELVLPEGTWKQSELYQRCCSTHDHEHIMTGPLVGQGQLIGTINFARIGHIPAFNHLELASLGAVCTHFSARLAELRKPHSVSGQISNRLTSREIQIANLVAKGLTNAEIGAELWITHNSVKQALKRIFRKLEVSARTEMVAKLRDII, MGSDKIHHHHHHMPIDTVGEQISLGKTSNEQANHIFLFLEVFKQEGGIQSYVKDIFRAYSGLSQGYQAEVLLLRDSPECSNPFTSNNLKFHYFQNPSPQIGRIKMAGVLLKFLLQRRPQMVFCGHIKLAVLVQTLCQPLGIPYTILTYGKEFWEPLKNQERRALAAAKEIWTISRYSRDRACAVNGIDPHKVKMLPCAIDGNKFTPGAKQPELIDKYGLTDAKVLMTVARLWSGDIYKGVDVTIRALPKIIQSFPEVKYLVIGRGDDQPRLAQLAQDLGVSDRVIFAGFVPTEQLMAHYRLADAYIMPSQEGFGIVYLEAMACGVPVLSGDDDGSADPLQDGKLGWRVPHRNPEAVAAACLEILQGDDQRCDGEWLREQAIALFGMDALQKQLLSLVHTQN, MGSDKIHHHHHHMPINIRRATINDIICMQNANLHNLPENYMMKYYMYHILSWPEASFVATTTTLDCEDSDEQDENDKLELTLDGTNDGRTIKLDPTYLAPGEKLVGYVLVKMNDDPDQQNEPPNGHITSLSVMRTYRRMGIAENLMRQALFALREVHQAEYVSLHVRQSNRAALHLYRDTLAFEVLSIEKSYYQDGEDAYAMKKVLKLEELQISNFTHRRLKENEEKLEDDLESDLLEDIIKQGVNDIIV, MGSDKIHHHHHHMPINSFENYPMNWKPKRPSKGQILYKALAEQLEQDINNGFLLPGTKLPPQRELADFLDVNVSTISRAFKICEKKGLISGVTGSGTFVSYDTRSNLFLMSSNNKITFIEMGTMNPDFTLEEMNTLFKHIIKEIDFKTIFQYGQRDGAKWQKEAIAKLIYKAGLETTSDSLLPASGGQNAIVAILAGLFQHGDRIGVDPLTYPGIKTAAKMLGIQLIPIKQEDNEISEEGLLYACKNENIKGLYIIPDYQNPTTHIMSQNGRKMIANIASKYNLIVIEDAIHSLLNETHLNPVASYLPNQTIYITSLSKIIAPSLRLAYISTPKQYREALSSALYNINLSQSYFLTEIAYRMITSGEADKLINARRKSARRRNKIINQYLSGYNLLGNEECIFRWLILPDGIMAEKFEIQALKEGVQVYASERFAVGKEKPISAIRIAVCATESTEELKAGLSVLKRLLEEKK
